pKd: −log10 of the molar value.
Target: Rab6B^Q72L, GTPase domain (residues 8-176), constitutively active mutant (mouse) (UniProt P61294)
Test: ITC; MicroCal PEAQ-ITC, 25 °C, 50 mM Tris pH 7.5, 100 mM NaCl, 2 mM MgCl2; typically one protein (400 μM) in the syringe into its binding protein (40 μM) in the cell

Chain of Rab6B^Q72L, GTPase domain (residues 8-176), constitutively active mutant (mouse) (P61294 8-176 Q72L): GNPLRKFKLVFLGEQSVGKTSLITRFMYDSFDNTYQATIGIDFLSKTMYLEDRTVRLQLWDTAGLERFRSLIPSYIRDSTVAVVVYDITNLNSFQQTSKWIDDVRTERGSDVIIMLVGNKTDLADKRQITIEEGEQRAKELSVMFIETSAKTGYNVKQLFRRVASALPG

pKd: 5.10
Substance: ELKS2_RBD, the region of ELKS2 corresponding to ELKS1 residues 849-922 (domain or fragment)
